According to patent publication US20260027190A1, “OVARIAN TUMOR DEUBIQUITINASE OXIDATION AND USES THEREOF” (The University of Vermont and State Agricultural College, priority 2022, published 2026):

Assays:
Assay type in all cases: cell-based
Details in all cases: direct administration of recombinant protein to MTE cells
[1] = system: mouse tracheal epithelial (MTE) cells; experiment: Total PSSG in MTE cells treated with recombinant GLRX
Method: OTUB1 was one of the PSSG targets detected in IL1B-stimulated epithelial cells raising the possibility that S-glutathionylation of OTUB1 affects the stability of SLC7A11. To investigate this, immunoprecipitation of GSH followed by Western Blotting of OTUB1 in MTE cells treated with vehicle or IL1B was performed. Dithiothreitol (DTT) was incubated with cell lysates prior to immunoprecipitation as a negative control. OTUB1 levels from whole cell lysates were used as the input control. Increases in OTUB1 S-glutathionylation (OTUB1-SSG) in response to IL1B were observed, with further increases occurring in cells lacking Glrx (FIG. 4G), consistent with the role of GLRX as a deglutathionylating enzyme. Western blots were performed using cells treated with the WT- or C23S-mutant GLRX recombinant protein to examine the presence of glutaredoxin (FIG. 4H) and total PSSG (FIG. 4I) (P-value*<0.05, **<0.01, ***<0.001, ****<0.0001). […] Glutathione was evaluated in MTE cells treated with recombinant WT- or C23S-mutant GLRX (FIG. 4J) and glutamate in cell culture supernatant of MTE cells treated with WT or the C23S mutant GLRX was also evaluated (FIG. 4K). […]
Cell lysates were prepared in 100 mM potassium phosphate buffer containing 0.6% sulfosalicylic acid, 1 mM ethylenediaminetetraacetic acid (EDTA) and 0.01% triton-x-100. […] Kinetic absorbance was measured every minute at 412 nm for 20 minutes. […]

[2] = system: mouse tracheal epithelial (MTE) cells; experiment: Total GSH measurement (DTNB assay) in MTE cells
Method: It has been previously shown that the pleotropic cytokine IL1B augments glycolysis in lung epithelial cells, and that interleukin 1B (IL1B) is linked to oxidative stress. The pentose phosphate pathway, an offshoot of glycolysis, regulates the redox environment by providing nicotinamide adenine dinucleotide phosphate (NADPH) reducing equivalents necessary for glutathione (GSH) homeostasis. The effects of GSH in response to IL1B were examined. Briefly, GSH was measured using a 5,5′-dithio-bis (2-nitrobenzoic acid) (DTNB) assay in both control and IL1B-stimulated mouse tracheal epithelial cells. […] Statistics on the left panel represent the total GSH levels, without differentiating between labeled and unlabeled portions of GSH (P-value*<0.05, ****<0.0001).
(§1) A regulator of GSH homeostasis is the transporter system xC-, which exports glutamate and concomitantly imports cystine in a 1:1 ratio. Once inside the cells, cystine is reduced to two cysteines, the latter being the rate limiting amino acid required for GSH synthesis. These relationships were examined further. […] To address whether IL1B-induced increases in GSH are system xC- dependent, two system xC- inhibitors, erastin (Er) and sulfasalazine (SAS) were used. Cells were pretreated for one hour, followed by IL1B treatment for 24 hours. Then, GSH levels were measured in cells exposed to increasing doses of Er or SAS (FIG. 2G). Extracellular glutamate levels in cell culture supernatant of cells pretreated with 0.5 micromolar Er (left) or 100 micromolar SAS (right) for 1 hour before IL1B stimulation were also measured (FIG. 2H). […] System xC- inhibition is known to induce ferroptosis, an iron-dependent mode of cell death characterized by increased lipid peroxidation. However, no changes in cell viability using erastin (5 micromolar) or sulfasalazine (500 micromolar) were detected (FIG. 2I; P-value*<0.05, ***<0.001, ****<0.0001).
(§2) Primary mouse tracheal epithelial (MTE) cells were isolated from C57BL/6NJ wild-type or C57BL6/NJ mice lacking Glrx1 gene and cultured. Cells were grown on collagen coated plastic plates or transwell inserts with media change every 2 days until confluency. For interleukin 1B (IL1B) treatment: cells were incubated in plain Dulbecco's Modified Eagle Medium (DMEM): F12 media containing 6 mM glucose and 2 mM glutamine overnight followed by stimulation with 10 ng/ml IL1B or 0.1% bovine serum albumin (BSA) in phosphate buffered saline (PBS) (vehicle control) for 24 hours. Treatment with crastin, sulfasalazine or BSO occurred 1 hour before IL1B stimulation. Media and cells were collected for further analysis. For growing H522 and OTUB1-CRISPR-H522 cells: Roswell Park Memorial Institute (RPMI) media supplemented with 10% fetal bovine serum (FBS) and 1% pen/strep was used to grow the cells. Plasmid over-expression and OTUB1 knock-down experiments were done when cells were 60-70% confluent.
Cell lysates were prepared in 100 mM potassium phosphate buffer containing 0.6% sulfosalicylic acid, 1 mM ethylenediaminetetraacetic acid (EDTA) and 0.01% triton-x-100. To measure total glutathione (GSH), equal amounts of proteins were incubated with 3 micromolar 5,5′-dithio-bis (2-nitrobenzoic acid) (DTNB) reagent and 2.25 microgram/ml glutathione reductase followed by the addition of 240 micromolar Nicotinamide adenine dinucleotide phosphate (NADPH). Kinetic absorbance was measured every minute at 412 nm for 20 minutes. […]

[3] = system: mouse tracheal epithelial (MTE) cells; experiment: Extracellular glutamate in cell culture supernatant of MTE cells
From the text: as §1, §2
Glutamate in media was measured using Biovision kit following manufacturer's protocol.

B1: GLRX: recombinant wild-type glutaredoxin protein, deglutathionylating enzyme, administered directly to cells (protein, UniProt P35754 2-106, looked up)
Glutaredoxin-1: AQEFVNCKIQPGKVVVFIKPTCPYCRRAQEILSQLPIKQGLLEFVDITATNHTNEIQDYLQQLTGARTVPRVFIGKDCIGGCSDLVSLQQSGELLTRLKQIGALQ
decreased: overall PSSG [1] | GSH levels [2] | extracellular glutamate [3]
